The results in this text go back to the RNAGym collection of RNA variant scans (doi:10.7554/elife.80360).

B1: Hammerhead Ribozyme (parent)
chain: ACCGGAUGUGCUUUCCGGUCUGAUGAGUCCGUGAGGACGAAACAG

Variants of B1 are the subject of this data set. Nature of the data set: self-cleavage, relative activity (ratio to wild type); higher = more cleavage; co-transcriptional.
ACCGGAUGUGCUAUCCGGUCUGAUCAGUCCGUGAGGACGAAACAG [U13A G25C]: the self-cleavage came out at 0.327.

Take ACCGGAUGUGCUAUCCGGUCUGAUAAGUCCGUGAGGACGAAACAG [U13A G25A]: the self-cleavage was 0.326.

On to ACCGGAUGUGCUAUCCGGUCUGAUUAGUCCGUGAGGACGAAACAG [U13A G25U], for which the self-cleavage is 0.277.

Consider ACCGGAUGUGCUAUCCGGUCUGAUGAGUCCGUGAGGACGGAACAG [U13A A40G], for which the self-cleavage is 0.287.

ACCGGAUGUGCUAUCCGGUCUGAUGAGUCCGUGAGGACGUAACAG [U13A A40U]: the self-cleavage amounted to 0.379.

Consider ACCGGAUGUGCUAUCCGGUCUGAUGAGUCCGUGAGGACGCAACAG [U13A A40C], for which the self-cleavage amounted to 0.711.

In the case of ACCGGAUGUGCUAUCCAGUCUGAUGAGUCCGUGAGGACGAAACAG [U13A G17A], the self-cleavage came to 1.16.

As to ACCGGAUGUGCUAUCCUGUCUGAUGAGUCCGUGAGGACGAAACAG [U13A G17U], the self-cleavage turned out to be 1.02.

Consider ACCGGAUGUGCUAUCCCGUCUGAUGAGUCCGUGAGGACGAAACAG [U13A G17C], for which the self-cleavage was found to be 0.815.

For ACCGGAUGUGCUCUCCGGUCUGAUGAGUCCGUGAGGACGAGACAG [U13C A41G], the self-cleavage is 0.394.

In the case of ACCGGAUGUGCUCUCCGGUCUGAUGAGUCCGUGAGGACGACACAG [U13C A41C], the self-cleavage worked out at 0.247.

ACCGGAUGUGCUCUCCGGUCUGAUGAGUCCGUGAGGACGAUACAG [U13C A41U]: the self-cleavage amounted to 0.362.

Regarding ACCGGAUGUGCUAUCCGGUCUGAUGAGUCAGUGAGGACGAAACAG [U13A C30A], the self-cleavage came out at 1.31.

As to ACCGGAUGUGCUAUCCGGUCUGAUGAGUCUGUGAGGACGAAACAG [U13A C30U], the self-cleavage amounted to 1.46.

As to ACCGGAUGUGCUAUCCGGUCUGAUGAGUCGGUGAGGACGAAACAG [U13A C30G], the self-cleavage was found to be 0.947.

As to ACCGGAUGUGCUCUCCGGUCUGCUGAGUCCGUGAGGACGAAACAG [U13C A23C], the self-cleavage stood at 0.373.

Take ACCGGAUGUGCUCUCCGGUCUGGUGAGUCCGUGAGGACGAAACAG [U13C A23G]: the self-cleavage turned out to be 0.419.

For the variant ACCGGAUGUGCUCUCCGGUCUGUUGAGUCCGUGAGGACGAAACAG [U13C A23U], the self-cleavage came out at 0.237.

Turning to ACCGGAUGUGCUCUCCGGUCUGAUGAGUCCGUGAGGACGUAACAG [U13C A40U], the self-cleavage was 0.277.

For ACCGGAUGUGCUCUCCGGUCUGAUGAGUCCGUGAGGACGGAACAG [U13C A40G], the self-cleavage amounted to 0.465.

Consider ACCGGAUGUGCUCUCCGGUCUGAUGAGUCCGUGAGGACGCAACAG [U13C A40C], for which the self-cleavage was 0.725.

As to ACCGGAUGUGCUAUCCGGUCUGAUGAGUCCGUGAGGACGAAAAAG [U13A C43A], the self-cleavage is 0.254.

On to ACCGGAUGUGCUAUCCGGUCUGAUGAGUCCGUGAGGACGAAAGAG [U13A C43G], for which the self-cleavage came to 0.335.

Consider ACCGGAUGUGCUAUCCGGUCUGAUGAGUCCGUGAGGACGAAAUAG [U13A C43U], for which the self-cleavage amounted to 0.614.

Turning to ACCGGAUGUGCUAUCCGGUCUGAUGACUCCGUGAGGACGAAACAG [U13A G27C], the self-cleavage was found to be 0.823.

With ACCGGAUGUGCUAUCCGGUCUGAUGAUUCCGUGAGGACGAAACAG [U13A G27U], the self-cleavage came out at 0.53.

On to ACCGGAUGUGCUAUCCGGUCUGAUGAAUCCGUGAGGACGAAACAG [U13A G27A], for which the self-cleavage was 0.873.

As to ACCGGAUGUGCUAUCCGGUCUGAUGAGUCCAUGAGGACGAAACAG [U13A G31A], the self-cleavage came to 1.46.

ACCGGAUGUGCUAUCCGGUCUGAUGAGUCCUUGAGGACGAAACAG [U13A G31U]: the self-cleavage amounted to 1.39.

Regarding ACCGGAUGUGCUAUCCGGUCUGAUGAGUCCCUGAGGACGAAACAG [U13A G31C], the self-cleavage worked out at 1.39.

On to ACCGGAUGUGCUCUCCGGUCUGAUGAGUCCGUGAGGACGAAACAG [U13C], for which the self-cleavage worked out at 1.12.

ACCGGAUGUGCUAUCCGGUCUGAUGAGUCCGAGAGGACGAAACAG [U13A U32A]: the self-cleavage was determined as 1.31.

For the variant ACCGGAUGUGCUAUCCGGUCUGAUGAGUCCGGGAGGACGAAACAG [U13A U32G], the self-cleavage was found to be 1.3.

Consider ACCGGAUGUGCUAUCCGGUCUGAUGAGUCCGCGAGGACGAAACAG [U13A U32C], for which the self-cleavage is 1.24.

ACCGGAUGUGCUAUCCGGUCAGAUGAGUCCGUGAGGACGAAACAG [U13A U21A]: the self-cleavage was 0.707.

As for ACCGGAUGUGCUAUCCGGUCCGAUGAGUCCGUGAGGACGAAACAG [U13A U21C], the self-cleavage was determined as 0.908.

As to ACCGGAUGUGCUAUCCGGUCGGAUGAGUCCGUGAGGACGAAACAG [U13A U21G], the self-cleavage worked out at 0.602.

For the variant ACCGGAUGUGCUAUCCGUUCUGAUGAGUCCGUGAGGACGAAACAG [U13A G18U], the self-cleavage came to 1.23.

ACCGGAUGUGCUAUCCGCUCUGAUGAGUCCGUGAGGACGAAACAG [U13A G18C]: the self-cleavage amounted to 0.777.

For the variant ACCGGAUGUGCUAUCCGAUCUGAUGAGUCCGUGAGGACGAAACAG [U13A G18A], the self-cleavage came out at 1.17.

In the case of ACCGGAUGUGCUAUCCGGUCUGAUGAGUACGUGAGGACGAAACAG [U13A C29A], the self-cleavage stood at 0.759.

As to ACCGGAUGUGCUAUCCGGUCUGAUGAGUUCGUGAGGACGAAACAG [U13A C29U], the self-cleavage turned out to be 0.941.

With ACCGGAUGUGCUAUCCGGUCUGAUGAGUGCGUGAGGACGAAACAG [U13A C29G], the self-cleavage turned out to be 0.922.

Take ACCGGAUGUGCUAUCCGGUCUGAUGAGUCCGUGAGGACAAAACAG [U13A G39A]: the self-cleavage stood at 0.317.

On to ACCGGAUGUGCUAUCCGGUCUGAUGAGUCCGUGAGGACCAAACAG [U13A G39C], for which the self-cleavage came to 0.341.

Consider ACCGGAUGUGCUAUCCGGUCUGAUGAGUCCGUGAGGACUAAACAG [U13A G39U], for which the self-cleavage was 0.339.

For the variant ACCGGAUGUGCUCUCCGGUCUGAUGAGUCCGUGAGGACGAAACCG [U13C A44C], the self-cleavage came out at 0.491.

ACCGGAUGUGCUCUCCGGUCUGAUGAGUCCGUGAGGACGAAACUG [U13C A44U]: the self-cleavage stood at 0.923.

As for ACCGGAUGUGCUCUCCGGUCUGAUGAGUCCGUGAGGACGAAACGG [U13C A44G], the self-cleavage turned out to be 1.49.

Regarding ACCGGAUGUGCUCUCCGGUCUGAUGAGUCCGUGAGGACGAAGCAG [U13C A42G], the self-cleavage came to 0.232.

In the case of ACCGGAUGUGCUCUCCGGUCUGAUGAGUCCGUGAGGACGAACCAG [U13C A42C], the self-cleavage stood at 0.313.

As to ACCGGAUGUGCUCUCCGGUCUGAUGAGUCCGUGAGGACGAAUCAG [U13C A42U], the self-cleavage came to 0.327.

For the variant ACCGGAUGUGCUAUCGGGUCUGAUGAGUCCGUGAGGACGAAACAG [U13A C16G], the self-cleavage turned out to be 1.27.

Regarding ACCGGAUGUGCUAUCUGGUCUGAUGAGUCCGUGAGGACGAAACAG [U13A C16U], the self-cleavage was 1.02.

Turning to ACCGGAUGUGCUAUCAGGUCUGAUGAGUCCGUGAGGACGAAACAG [U13A C16A], the self-cleavage turned out to be 1.49.

For ACCGGAUGUGCUAUCCGGUCUGAUGAGUCCGUGAUGACGAAACAG [U13A G35U], the self-cleavage turned out to be 0.727.

With ACCGGAUGUGCUAUCCGGUCUGAUGAGUCCGUGAAGACGAAACAG [U13A G35A], the self-cleavage was found to be 0.89.
